Laboratory results: PMC6269477

Key:
[1] = molecular target: PBP1A (untagged, purified) (E. coli) (UniProt P02918)
[2] = molecular target: PBP1B (untagged, purified) (E. coli) (UniProt P02919)
Sequence of PBP1B (untagged, purified) (E. coli) (P02919 46-844 limits assumed): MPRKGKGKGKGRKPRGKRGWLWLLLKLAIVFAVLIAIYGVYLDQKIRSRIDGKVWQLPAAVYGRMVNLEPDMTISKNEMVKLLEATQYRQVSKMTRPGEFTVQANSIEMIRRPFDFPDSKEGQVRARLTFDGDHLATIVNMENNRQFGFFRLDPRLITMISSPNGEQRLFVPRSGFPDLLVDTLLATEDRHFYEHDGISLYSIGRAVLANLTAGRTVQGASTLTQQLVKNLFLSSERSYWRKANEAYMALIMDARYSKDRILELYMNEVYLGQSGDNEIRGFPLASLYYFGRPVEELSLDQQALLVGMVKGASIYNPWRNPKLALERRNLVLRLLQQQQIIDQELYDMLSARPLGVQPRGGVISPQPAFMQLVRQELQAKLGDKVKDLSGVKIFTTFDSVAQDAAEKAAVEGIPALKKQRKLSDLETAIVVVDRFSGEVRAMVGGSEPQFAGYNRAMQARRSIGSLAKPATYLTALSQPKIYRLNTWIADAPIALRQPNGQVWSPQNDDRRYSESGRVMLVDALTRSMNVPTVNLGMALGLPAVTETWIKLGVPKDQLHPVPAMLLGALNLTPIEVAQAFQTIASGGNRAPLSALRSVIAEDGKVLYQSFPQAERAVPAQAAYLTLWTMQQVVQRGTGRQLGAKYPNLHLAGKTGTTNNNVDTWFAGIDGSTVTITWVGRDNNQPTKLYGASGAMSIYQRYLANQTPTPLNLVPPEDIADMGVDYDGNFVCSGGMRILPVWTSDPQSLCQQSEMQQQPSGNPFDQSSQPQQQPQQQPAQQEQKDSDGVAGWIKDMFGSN

Sequence of PBP1A (untagged, purified) (E. coli) (P02918 whole entry): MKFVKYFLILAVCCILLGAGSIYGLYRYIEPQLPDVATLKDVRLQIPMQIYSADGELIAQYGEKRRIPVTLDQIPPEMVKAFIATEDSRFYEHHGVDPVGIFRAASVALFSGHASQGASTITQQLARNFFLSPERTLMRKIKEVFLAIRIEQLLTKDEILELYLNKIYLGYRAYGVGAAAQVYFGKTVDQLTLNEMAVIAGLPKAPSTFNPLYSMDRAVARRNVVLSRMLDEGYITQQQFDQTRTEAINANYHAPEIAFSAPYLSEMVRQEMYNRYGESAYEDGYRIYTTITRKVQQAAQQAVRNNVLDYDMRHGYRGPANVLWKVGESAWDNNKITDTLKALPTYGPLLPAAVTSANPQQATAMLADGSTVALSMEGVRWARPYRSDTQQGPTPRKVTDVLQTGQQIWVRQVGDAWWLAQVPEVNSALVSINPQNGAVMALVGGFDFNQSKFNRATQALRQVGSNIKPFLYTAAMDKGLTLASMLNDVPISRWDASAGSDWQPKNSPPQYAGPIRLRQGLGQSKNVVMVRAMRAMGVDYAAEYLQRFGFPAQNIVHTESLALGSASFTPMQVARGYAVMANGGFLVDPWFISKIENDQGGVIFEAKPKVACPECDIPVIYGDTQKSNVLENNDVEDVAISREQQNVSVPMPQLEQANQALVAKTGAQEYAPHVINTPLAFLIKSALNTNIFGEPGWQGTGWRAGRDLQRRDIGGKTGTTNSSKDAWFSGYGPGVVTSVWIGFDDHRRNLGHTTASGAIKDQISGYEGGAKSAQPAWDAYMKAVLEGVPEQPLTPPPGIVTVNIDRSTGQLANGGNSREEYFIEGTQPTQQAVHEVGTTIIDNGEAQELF

Row | GTase rate of PBP1A (consumption of dansylated lipid II), normalised to PBP1A alone, with FtsN [1] [fold] | GTase rate of PBP1B (consumption of dansylated lipid II), normalised to PBP1B alone, with FtsN [2] [fold] | GTase rate of PBP1A (consumption of dansylated lipid II), normalised to PBP1A alone, with ZipA [1] [fold] | GTase rate of PBP1A, normalised to PBP1A alone, with ZipA and FtsN together [1] [fold] | GTase rate of PBP1B (consumption of dansylated lipid II), normalised to PBP1B alone, with ZipA [2] [fold] | GTase rate of PBP1B, normalised to PBP1B alone, with ZipA and FtsN together [2] [fold] | Substance
1 | 1.3 | 2.6 | – | – | – | – | FtsN-His (from UniProt P29131 1-319) (natural protein)
2 | – | – | 2.6 | 3.4 | 1.4 | 3 | ZipA (untagged, oligohistidine tag removed by thrombin) (from UniProt P77173 1-328) (natural protein)
